Experiment [1] deals with cynomolgus TCRvβ (BJM0847) (cynomolgus). Kind of experiment: SPR (Biacore): antibody captured on Protein L chip, BJM0847 as analyte, 1:1 fit. For orientation: Surface plasmon resonance follows binding to a sensor surface in real time, without labels.
Experiment [2] concerns the target human TCRvβ (BIM0444) (human). Description: SPR (Biacore): antibody captured via anti-human Fc on CM5, BIM0444 as analyte, 1:1 fit.
Experiment [3] has as its target cynomolgus TCRvβ (BJM0847) (cynomolgus). Description: SPR (Biacore): antibody amine-coupled to CM5, BJM0847 as analyte, 1:1 fit.

The source of these data is patent publication US20230102344A1.

Sequence of human TCRvβ (BIM0444) (human) (A0A0K0K1A5 22-114): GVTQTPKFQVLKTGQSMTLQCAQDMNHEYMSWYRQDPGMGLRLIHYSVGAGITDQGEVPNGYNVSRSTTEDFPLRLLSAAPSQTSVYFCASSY

B1: BJM0897 (antibody, V domains shown)
VH: QVQLVQSGAEVKKPGSSVKVSCKASGTDFKLTYIHWVRQAPGQGLEWMGRIFPGSGNVKYNEKFKGRVTITADTSTSTAYMELSSLRSEDTAVYYCAGSYYSYDVLDYWGQGTTVTVSS
VL: DIQMTQSPSFLSASVGDRVTITCKASQNVDNRVAWYQQKPGKAPKALIYSSSHRYKGVPSRFSGSGSGTEFTLTISSLQPEDFATYFCQQFKSYPLTFGQGTKLEIK
Take B1: the Kd (in general, the constant that tells how readily two partners part at equilibrium) in experiment [1] amounted to 69 nM; in experiment [2], 7.2 nM.

B2: BJM0912 (antibody, V domains shown)
VH: QVQLVQSGAEVKKPGSSVKVSCKASGHDFHLWYIHWVRQAPGQGLEWMGRVSAGSGNVKYNEKFKGRVTITADTSTSTAYMELSSLRSEDTAVYYCAGSYYSYDVLDYWGQGTTVTVSS
VL: DIQMTQSPSFLSASVGDRVTITCKASQNVDNKVAWHQQKPGKAPKALIYSSSHRYKGVPSRFSGSGSGTEFTLTISSLQPEDFATYFCQQFKSYPLTFGQGTKLEIK
B2: the Kd in experiment [1] was found to be 326 nM; in experiment [2], 28 nM.

B3: BJM0899 (antibody, V domains shown)
VH: QVQLVQSGAEVKKPGSSVKVSCKASGHDFRLTYIHWVRQAPGQGLEWMGRISAGSGNVKYNEKFKGRVTITADTSTSTAYMELSSLRSEDTAVYYCAGSYYSYDVLDYWGQGTTVTVSS
VL: DIQMTQSPSFLSASVGDRVTITCKASQNVADRVAWYQQKPGKAPKALIYSSSHRYKGVPSRFSGSGSGTEFTLTISSLQPEDFATYFCQQFKSYPLTFGQGTKLEIK
With B3, the Kd in experiment [1] came to 130 nM; in experiment [2], 3.7 nM.

B4: BJM0502 (scFv, part only; not given: Fc scaffold making it bivalent, part only)
scFv, part: QVQLVQSGAEVKKPGSSVKVSCKASGHDFHLWYIHWVRQAPGQGLEWMGRVSAGSGNVKYNEKFKGRVTITADTSTSTAYMELSSLRSEDTAVYYCAGSYYSYDVLDYWGQGTTVTVSSGGGGSGGGGSGGGGSGGGGSDIQMTQSPSFLSASVGDRVTITCKASQNVDNKVAWHQQKPGKAPKALIYSSSHRYKGVPSRFSGSGSGTEFTLTISSLQPEDFATYFCQQFKSYPLTFGQGTKLEIK
B4: the results for the Kd in experiment [1] and in experiment [2] were 387 nM and 20 nM, respectively.

B5: A-H.59 (scFv)
scFv: QVQLVQSGAEVKKPGSSVKVSCKASGHDFRLTYIHWVRQAPGQGLEWMGRIYAGSGNVKYNEKFKGRVTITADTSTSTAYMELSSLRSEDTAVYYCAVSYYSYDVLDYWGQGTTVTVSSGGGGSGGGGSGGGGSGGGGSDIQMTQSPSFLSASVGDRVTITCKASQNVADRVVWHQQKPGKAPKALIYSSSHRYKGVPSRFSGSGSGTEFTLTISSLQPEDFATYFCQQFKSYPLTFGQGTKLEIK
On to B5, for which the Kd in experiment [1] was 5 nM; in experiment [2], 0.323 nM.

B6: A-H.64 (scFv)
scFv: QVQLVQSGAEVKKPGSSVKVSCKASGHDFKLTYIHWVRQAPGQGLEWMGRVSAGSGNTKYNEKFKGRVTITADTSTSTAYMELSSLRSEDTAVYYCAVSYYSYDVLDYWGQGTTVTVSSGGGGSGGGGSGGGGSGGGGSDIQMTQSPSFLSASVGDRVTITCKASQNVADRVVWHQQKPGKAPKALIYSSSHRYKGVPSRFSGSGSGTEFTLTISSLQPEDFATYFCQQFKSYPLTFGQGTKLEIK
Take B6: the Kd in experiment [1] worked out at 1 nM; in experiment [2], 0.486 nM.

B7: A-H.66 (scFv)
scFv: QVQLVQSGAEVKKPGSSVKVSCKASGHDFKLTYIHWVRQAPGQGLEWMGRIYAGSGNTKYNEKFKGRVTITADTSTSTAYMELSSLRSEDTAVYYCAVSYYSYDVLDYWGQGTTVTVSSGGGGSGGGGSGGGGSGGGGSDIQMTQSPSFLSASVGDRVTITCKASQNVGDRVVWHQQKPGKAPKALIYSSSHRYKGVPSRFSGSGSGTEFTLTISSLQPEDFATYFCQQFKSYPLTFGQGTKLEIK
Take B7: the Kd in experiment [1] is 2.2 nM; in experiment [2], 0.338 nM.

B8: A-H.68 (scFv, not shown: a dimerising Fc or GST)
scFv: QVQLVQSGAEVKKPGSSVKVSCKASGHDFRLTYIHWVRQAPGQGLEWMGRISAGSGNVKYNEKFKGRVTITADTSTSTAYMELSSLRSEDTAVYYCAVSYYSYDVLDYWGQGTTVTVSSGGGGSGGGGSGGGGSGGGGSDIQMTQSPSFLSASVGDRVTITCKASQNVADRVAWYQQKPGKAPKALIYSSSHRYKGVPSRFSGSGSGTEFTLTISSLQPEDFATYFCQQFKSYPLTFGQGTKLEIK
As for B8, the Kd turned out to be 59 nM in experiment [3] and 0.829 nM in experiment [2].

B9: A-H.63 (scFv)
scFv: QVQLVQSGAEVKKPGSSVKVSCKASGHDFRLTYIHWVRQAPGQGLEWMGRVYAGSGNTKYNEKFKGRVTITADTSTSTAYMELSSLRSEDTAVYYCAVSYYSYDVLDYWGQGTTVTVSSGGGGSGGGGSGGGGSGGGGSDIQMTQSPSFLSASVGDRVTITCKASQNVEDRVVWHQQKPGKAPKALIYSSSHRYKGVPSRFSGSGSGTEFTLTISSLQPEDFATYFCQQFKSYPLTFGQGTKLEIK
Take B9: the Kd is 5.8 nM in experiment [1] and 0.274 nM in experiment [2].

B10: A-H.58 (scFv)
scFv: QVQLVQSGAEVKKPGSSVKVSCKASGHDFRLTYIHWVRQAPGQGLEWMGRVSAGSGNVKYNEKFKGRVTITADTSTSTAYMELSSLRSEDTAVYYCAVSYYSYDVLDYWGQGTTVTVSSGGGGSGGGGSGGGGSGGGGSDIQMTQSPSFLSASVGDRVTITCKASQNVGNRVVWHQQKPGKAPKALIYSSSHRYKGVPSRFSGSGSGTEFTLTISSLQPEDFATYFCQQFKSYPLTFGQGTKLEIK
Take B10: the Kd in experiment [1] was 0.158 nM; in experiment [2], 0.491 nM.

B11: A-H.60 (scFv)
scFv: QVQLVQSGAEVKKPGSSVKVSCKASGHDFKLTYIHWVRQAPGQGLEWMGRVSAGSGNTKYNEKFKGRVTITADTSTSTAYMELSSLRSEDTAVYYCAVSYYSYDVLDYWGQGTTVTVSSGGGGSGGGGSGGGGSGGGGSDIQMTQSPSFLSASVGDRVTITCKASQNVGDRVAWHQQKPGKAPKALIYSSSHRYKGVPSRFSGSGSGTEFTLTISSLQPEDFATYFCQQFKSYPLTFGQGTKLEIK
As to B11, the values for the Kd in experiment [1] and in experiment [2] were 1.6 nM and 0.445 nM, respectively.

B12: A-H.57 (scFv)
scFv: QVQLVQSGAEVKKPGSSVKVSCKASGHDFRLTYIHWVRQAPGQGLEWMGRVSAGSGNTKYNEKFKGRVTITADTSTSTAYMELSSLRSEDTAVYYCAVSYYSYDVLDYWGQGTTVTVSSGGGGSGGGGSGGGGSGGGGSDIQMTQSPSFLSASVGDRVTITCKASQNVGDRVVWHQQKPGKAPKALIYSSSHRYKGVPSRFSGSGSGTEFTLTISSLQPEDFATYFCQQFKSYPLTFGQGTKLEIK
For B12, the Kd worked out at 0.762 nM in experiment [1] and 0.469 nM in experiment [2].

B13: A-H.67 (scFv)
scFv: QVQLVQSGAEVKKPGSSVKVSCKASGTDFKLTYIHWVRQAPGQGLEWMGRIFPGSGNVKYNEKFKGRVTITADTSTSTAYMELSSLRSEDTAVYYCAVSYYSYDVLDYWGQGTTVTVSSGGGGSGGGGSGGGGSGGGGSDIQMTQSPSFLSASVGDRVTITCKASQNVDNRVAWYQQKPGKAPKALIYSSSHRYKGVPSRFSGSGSGTEFTLTISSLQPEDFATYFCQQFKSYPLTFGQGTKLEIK
For the molecule B13, the Kd in experiment [2] stood at 20 nM.

B14: A-H.23 (scFv, not shown: a dimerising Fc or GST)
scFv: QVQLVQSGAEVKKPGSSVKVSCKASGHDFRLTYIHWVRQAPGQGLEWMGRISAGSGNVKYNEKFKGRVTITADTSTSTAYMELSSLRSEDTAVYYCAGSYYSYDVLDYWGQGTTVTVSSGGGGSGGGGSGGGGSGGGGSDIQMTQSPSFLSASVGDRVTITCKASQNVADRVAWYQQKPGKAPKALIYSSSHRYKGVPSRFSGSGSGTEFTLTISSLQPEDFATYFCQQFKSYPLTFGQGTKLEIK
For B14, in experiment [2], the Kd is 1.7 nM.

B15: A-H.62 (scFv)
scFv: QVQLVQSGAEVKKPGSSVKVSCKASGHDFRLTYIHWVRQAPGQGLEWMGRVSAGSGNVKYNEKFKGRVTITADTSTSTAYMELSSLRSEDTAVYYCAVSYYSYDVLDYWGQGTTVTVSSGGGGSGGGGSGGGGSGGGGSDIQMTQSPSFLSASVGDRVTITCKASQNVADRVVWHQQKPGKAPKALIYSSSHRYKGVPSRFSGSGSGTEFTLTISSLQPEDFATYFCQQFKSYPLTFGQGTKLEIK
As for B15, the Kd in experiment [1] worked out at 0.766 nM; in experiment [2] it was 0.447 nM.

B16: A-H.13 (scFv)
scFv: QVQLVQSGAEVKKPGSSVKVSCKASGTDFKLTYIHWVRQAPGQGLEWMGRIFPGSGNVKYNEKFKGRVTITADTSTSTAYMELSSLRSEDTAVYYCAGSYYSYDVLDYWGQGTTVTVSSGGGGSGGGGSGGGGSGGGGSDIQMTQSPSFLSASVGDRVTITCKASQNVDNRVAWYQQKPGKAPKALIYSSSHRYKGVPSRFSGSGSGTEFTLTISSLQPEDFATYFCQQFKSYPLTFGQGTKLEIK
As for B16, the Kd turned out to be 173 nM in experiment [3] and 3.8 nM in experiment [2].

B17: A-H.24 (scFv)
scFv: QVQLVQSGAEVKKPGSSVKVSCKASGHDFHLWYIHWVRQAPGQGLEWMGRVSAGSGNVKYNEKFKGRVTITADTSTSTAYMELSSLRSEDTAVYYCAGSYYSYDVLDYWGQGTTVTVSSGGGGSGGGGSGGGGSGGGGSDIQMTQSPSFLSASVGDRVTITCKASQNVDNKVAWHQQKPGKAPKALIYSSSHRYKGVPSRFSGSGSGTEFTLTISSLQPEDFATYFCQQFKSYPLTFGQGTKLEIK
B17 registered a Kd in experiment [2] of 12 nM.

B18: A-H.65 (scFv)
scFv: QVQLVQSGAEVKKPGSSVKVSCKASGHDFKLTYIHWVRQAPGQGLEWMGRISAGSGNTKYNEKFKGRVTITADTSTSTAYMELSSLRSEDTAVYYCAVSYYSYDVLDYWGQGTTVTVSSGGGGSGGGGSGGGGSGGGGSDIQMTQSPSFLSASVGDRVTITCKASQNVGDRVVWHQQKPGKAPKALIYSSSHRYKGVPSRFSGSGSGTEFTLTISSLQPEDFATYFCQQFKSYPLTFGQGTKLEIK
Turning to B18, the equilibrium dissociation constant (Kd) in experiment [1] came to 0.725 nM; in experiment [2], 0.396 nM.

B19: A-H.61 (scFv)
scFv: QVQLVQSGAEVKKPGSSVKVSCKASGHDFKLTYIHWVRQAPGQGLEWMGRVSAGSGNTKYNEKFKGRVTITADTSTSTAYMELSSLRSEDTAVYYCAVSYYSYDVLDYWGQGTTVTVSSGGGGSGGGGSGGGGSGGGGSDIQMTQSPSFLSASVGDRVTITCKASQNVDNRVAWHQQKPGKAPKALIYSSSHRYKGVPSRFSGSGSGTEFTLTISSLQPEDFATYFCQQFKSYPLTFGQGTKLEIK
With B19, the results for the Kd in experiment [1] and in experiment [2] were 0.607 nM and 0.349 nM, respectively.
